Experiments:
[1] = target: purified human CD5 ectodomain (human) (UniProt P06127); assay: BLI (Octet Red96), antibody on anti-human Fc biosensors, 50 nM CD5 ectodomain, 25 C
[2] = target: human CD5 on cells (MOLT-4 human T lymphoblast cell line; primary human T-cells) (human) (UniProt P06127); assay: flow cytometry on primary human T-cells, antibody titration, fluorophore-conjugated (AF488) secondary anti-IgG, MFI

B1: anti-CD5 antibody 5D7 hIgG1 (humanized version of murine antibody 5D7) (antibody, V domains shown)
VH: QVTLKESGPVLVKPTETLTLTCTFSGFSLSTSGMGVGWIRQAPGKGLEWVAHIWWDDDVYYNPSLKSRLTITKDASKDQVSLKLSSVTAADTAVYYCVRRRATGTGFDYWGQGTLVTVSS
VL: NIVMTQSPSSLSASVGDRVTITCQASQDVGTAVAWYQQKPDQSPKLLIYWTSTRHTGVPDRFTGSGSGTDFTLTISSLQPEDIATYFCHQYNSYNTFGSGTKLEIK
Response (nm) [1]: 0.67 nm | EC50 (read off the curve) [2]: 0.03 nM

— US20210369854A1
